In the supplement of paper PMC11246515:
± gives the standard deviation of the averaged measurements.

Test: total protein half-life in vivo (active degradation + dilution); higher = more stable protein
[1] = E. coli NCM3722 delta-clpP delta-lon delta-hslV, growth: N-lim chemostat, doubling time 6 h
[2] = E. coli NCM3722 delta-clpP, growth: N-lim chemostat, doubling time 6 h
[3] = E. coli NCM3722 delta-hslV, growth: N-lim chemostat, doubling time 6 h
[4] = E. coli NCM3722 delta-lon, growth: N-lim chemostat, doubling time 6 h
[5] = E. coli NCM3722 delta-smpB, growth: N-lim chemostat, doubling time 6 h
[6] = wild type E. coli NCM3722, growth: C-lim chemostat, doubling time 3 h
[7] = wild type E. coli NCM3722, growth: C-lim chemostat, doubling time 12 h
[8] = wild type E. coli NCM3722, growth: N-lim chemostat, doubling time 6 h
[9] = wild type E. coli NCM3722, growth: N-lim chemostat, doubling time 12 h
[10] = wild type E. coli NCM3722, growth: P-lim chemostat, doubling time 6 h
[11] = wild type E. coli NCM3722, growth: P-lim chemostat, doubling time 12 h
[12] = wild type E. coli NCM3722, growth: C-lim chemostat, doubling time 6 h

Row | Sequence | total protein half-life in vivo [1] | total protein half-life in vivo [2] | total protein half-life in vivo [3] | total protein half-life in vivo [4] | total protein half-life in vivo [5] | total protein half-life in vivo [6] | total protein half-life in vivo [7] | total protein half-life in vivo [8] | total protein half-life in vivo [9] | total protein half-life in vivo [10] | total protein half-life in vivo [11] | total protein half-life in vivo [12]
1 | MKILLIEDNQRTQEWVTQGLSEAGYVIDAVSDGRDGLYLALKDDYALIILDIMLPGMDGWQILQTLRTAKQTPVICLTARDSVDDRVRGLDSGANDYLVKPFSFSELLARVRAQLRQHHALNSTLEISGLRMDSVSHSVSRDNISITLTRKEFQLLWLLASRAGEIIPRTVIASEIWGINFDSDTNTVDVAIRRLRAKVDDPFPEKLIATIRGMGYSFVAVKK | 5.88 ± 0.19 h | 4.67 ± 0.22 h | 5.28 ± 1 h | 4.77 ± 0.42 h | 4.91 ± 0.52 h | 2.99 ± 0.052 h | 10.4 ± 0.76 h | 4.11 ± 0.2 h | 7.422 ± 0.042 h | 5.64 ± 0.063 h | 11.9 ± 0.75 h | –
2 | MAIHNRAGQPAQQSDLINVAQLTAQYYVLKPEAGNAEHAVKFGTSGHRGSAARHSFNEPHILAIAQAIAEERAKNGITGPCYVGKDTHALSEPAFISVLEVLAANGVDVIVQENNGFTPTPAVSNAILVHNKKGGPLADGIVITPSHNPPEDGGIKYNPPNGGPADTNVTKVVEDRANALLADGLKGVKRISLDEAMASGHVKEQDLVQPFVEGLADIVDMAAIQKAGLTLGVDPLGGSGIEYWKRIGEYYNLNLTIVNDQVDQTFRFMHLDKDGAIRMDCSSECAMAGLLALRDKFDLAFANDPDYDRHGIVTPAGLMNPNHYLAVAINYLFQHRPQWGKDVAVGKTLVSSAMIDRVVNDLGRKLVEVPVGFKWFVDGLFDGSFGFGGEESAGASFLRFDGTPWSTDKDGIIMCLLAAEITAVTGKNPQEHYNELAKRFGAPSYNRLQAAATSAQKAALSKLSPEMVSASTLAGDPITARLTAAPGNGASIGGLKVMTDNGWFAARPSGTEDAYKIYCESFLGEEHRKQIEKEAVEIVSEVLKNA | 5.51 ± 0.17 h | 5.19 ± 0.29 h | 5.82 ± 0.08 h | 5.31 ± 0.31 h | 5.64 ± 0.31 h | 2.98 ± 0.16 h | 9.719 ± 0.083 h | 5.2 ± 0.099 h | 9.34 ± 0.22 h | 5.905 ± 0.033 h | 11.6 ± 0.12 h | –
3 | MDVQQFFVVAVFFLIPIFCFREAWKGWRAGAIDKRVKNAPEPVYVWRAKNPGLFFAYMVAYIGFGILSIGMIVYLIFYR | 2.64 h | – | 3.67 h | – | 4.42 h | – | – | – | – | 4.74 h | 8.43 h | 1.84 h
4 | MPGRFELKPTLEKVWHAPDNFRFMDPLPPMHRRGIIIAAIVLVVGFLLPSDDTPNAPVVTREAQLDIQSQSQPPTEEQLRAQLVTPQNDPDQVAPVAPEPIQEGQPEEQPQTTQTQPFQPDSGIDNQWRSYRVEPGKTMAQLFRDHGLPATDVYAMAQVEGAGKPLSNLQNGQMVKIRQNASGVVTGLTIDTGNNQQVLFTRQPDGSFIRAR | 5.6 ± 0.12 h | 6.35 ± 0.2 h | 5.57 ± 0.45 h | 6.65 ± 0.27 h | 6.12 ± 0.68 h | – | 9.18 ± 0.36 h | 5.79 ± 1.1 h | 11.4 ± 0.3 h | – | 8.86 ± 0.21 h | 5 ± 0.64 h
5 | MRIPRIYHPEPLTSHSHIALCEDAANHIGRVLRMGPGQALQLFDGSNQVFDAEITSASKKSVEVKVLEGQIDDRESPLHIHLGQVMSRGEKMEFTIQKSIELGVSLITPLFSERCGVKLDSERLNKKLQQWQKIAIAACEQCGRNRVPEIRPAMDLEAWCAEQDEGLKLNLHPRASNSINTLPLPVERVRLLIGPEGGLSADEIAMTARYQFTDILLGPRVLRTETTALTAITALQVRFGDLG [P0AGL7] | – | 5.91 ± 0.64 h | 5.44 ± 0.24 h | 5.41 ± 0.067 h | 5.19 ± 0.13 h | 2.98 ± 0.25 h | 10.1 ± 2.1 h | 5.45 ± 0.37 h | 10.7 ± 0.42 h | 6.05 ± 0.38 h | 12.31 ± 0.12 h | 6.14 ± 1.9 h
6 | MDQIRLTHLRQLEAESIHIIREVAAEFSNPVMLYSIGKDSSVMLHLARKAFYPGTLPFPLLHVDTGWKFREMYEFRDRTAKAYGCELLVHKNPEGVAMGINPFVHGSAKHTDIMKTEGLKQALNKYGFDAAFGGARRDEEKSRAKERIYSFRDRFHRWDPKNQRPELWHNYNGQINKGESIRVFPLSNWTEQDIWQYIWLENIDIVPLYLAAERPVLERDGMLMMIDDNRIDLQPGEVIKKRMVRFRTLGCWPLTGAVESNAQTLPEIIEEMLVSTTSERQGRVIDRDQAGSMELKKRQGYF | 5.8 ± 1.9 h | 3.7 ± 0.045 h | 1.49 ± 0.57 h | 1.35 ± 0.17 h | 1.29 ± 0.12 h | 1.58 ± 0.062 h | 2.88 ± 0.15 h | 1.206 ± 0.0024 h | 1.44 ± 0.29 h | 1.46 ± 0.23 h | 2.57 ± 0.54 h | 1.94 ± 0.21 h
7 | MNTIFSARIMKRLALTTALCTAFISAAHADDLNIKTMIPGVPQIDAESYILIDYNSGKVLAEQNADVRRDPASLTKMMTSYVIGQAMKAGKFKETDLVTIGNDAWATGNPVFKGSSLMFLKPGMQVPVSQLIRGINLQSGNDACVAMADFAAGSQDAFVGLMNSYVNALGLKNTHFQTVHGLDADGQYSSARDMALIGQALIRDVPNEYSIYKEKEFTFNGIRQLNRNGLLWDNSLNVDGIKTGHTDKAGYNLVASATEGQMRLISAVMGGRTFKGREAESKKLLTWGFRFFETVNPLKVGKEFASEPVWFGDSDRASLGVDKDVYLTIPRGRMKDLKASYVLNSSELHAPLQKNQVVGTINFQLDGKTIEQRPLVVLQEIPEGNFFGKIIDYIKLMFHHWFG [P0AEB2] | 6.19 ± 0.7 h | 6.72 ± 0.74 h | 6.22 ± 0.15 h | 6.61 ± 0.36 h | 6.03 ± 0.14 h | 3.24 ± 0.07 h | 12 ± 2.8 h | 6.23 ± 0.14 h | 14.5 ± 2 h | 6.1 ± 0.093 h | 13.2 ± 0.43 h | 6.05 ± 0.17 h
